Source: patent US20190092852A1
Values belong to the substance of their own block, whether it stands above or below them.

Columns and labels:
[1] = target: human ST2L on HEK-BLUE IL-33/IL-1beta cells (human) (UniProt Q01638)
[2] = target: T1, human IL-33 (R&D Systems, #3625-IL-010/CF) (human) (UniProt O95760)
T1 sequence (looked up): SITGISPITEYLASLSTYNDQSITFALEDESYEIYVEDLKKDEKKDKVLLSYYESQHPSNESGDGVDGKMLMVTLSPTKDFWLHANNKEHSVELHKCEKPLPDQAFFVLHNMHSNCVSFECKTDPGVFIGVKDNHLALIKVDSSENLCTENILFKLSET

[3] = target: human IL-33 (cell-based blocking assay of Example 2) (human) (UniProt O95760)
[4] = target: cyno IL-33 (cell-based blocking assay of Example 2) (cynomolgus monkey)
Sequence of cyno IL-33 (cell-based blocking assay of Example 2) (cynomolgus monkey) (chain, as listed by the source): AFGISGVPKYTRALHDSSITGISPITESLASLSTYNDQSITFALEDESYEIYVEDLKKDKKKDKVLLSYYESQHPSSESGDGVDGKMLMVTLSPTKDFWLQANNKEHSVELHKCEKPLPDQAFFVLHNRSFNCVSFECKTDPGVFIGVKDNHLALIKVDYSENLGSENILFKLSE

[5] = target: T1, human IL-33 (R&D Systems, #3625-IL-010/CF) (human); remark: listed apart in the source
[6] = target: T1, human IL-33 (R&D Systems, #3625-IL-010/CF) (human); remark: listed apart in the source
[7] = target: T1, human IL-33 (R&D Systems, #3625-IL-010/CF) (human); remark: listed apart in the source
[8] = target: human IL-33 N-His (human)
[9] = target: T1, human IL-33 (R&D Systems, #3625-IL-010/CF) (human); experiment: cell-based or functional assay
[10] = target: cynomolgus monkey N-terminal 6-His-tagged and C-terminal Avi-tagged IL-33 (S112-T270) (cynomolgus monkey); experiment: cell-based or functional assay
Sequence of cynomolgus monkey N-terminal 6-His-tagged and C-terminal Avi-tagged IL-33 (S112-T270) (cynomolgus monkey) (chain, as listed by the source limits assumed): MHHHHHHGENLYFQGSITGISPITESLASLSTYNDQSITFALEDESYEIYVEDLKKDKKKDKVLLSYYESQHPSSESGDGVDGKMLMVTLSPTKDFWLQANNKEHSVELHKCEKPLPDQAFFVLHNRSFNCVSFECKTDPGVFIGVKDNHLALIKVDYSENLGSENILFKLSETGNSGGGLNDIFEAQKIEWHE

Sequence of human ST2L on HEK-BLUE IL-33/IL-1beta cells (human) (Q01638 19-556 limits assumed): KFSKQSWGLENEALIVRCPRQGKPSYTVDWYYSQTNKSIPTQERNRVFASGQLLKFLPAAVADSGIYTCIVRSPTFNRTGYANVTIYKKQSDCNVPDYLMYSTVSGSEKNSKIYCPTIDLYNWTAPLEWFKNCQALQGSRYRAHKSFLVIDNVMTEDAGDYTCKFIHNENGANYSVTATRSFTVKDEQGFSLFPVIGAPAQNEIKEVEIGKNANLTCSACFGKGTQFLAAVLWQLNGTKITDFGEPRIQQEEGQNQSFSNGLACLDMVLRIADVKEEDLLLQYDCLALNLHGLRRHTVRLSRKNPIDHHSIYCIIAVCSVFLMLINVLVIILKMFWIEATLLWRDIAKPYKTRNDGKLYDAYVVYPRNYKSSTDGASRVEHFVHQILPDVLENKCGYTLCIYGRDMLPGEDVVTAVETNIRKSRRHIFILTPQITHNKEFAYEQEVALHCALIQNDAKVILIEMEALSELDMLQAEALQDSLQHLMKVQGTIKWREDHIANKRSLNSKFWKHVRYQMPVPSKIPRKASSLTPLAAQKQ

EC50 (SEAP reporter OD 620, HEK-BLUE IL-33/IL-1beta cells) [1]: 0.006 nM
Substance: human IL-33 N-His (ligand)

Ph-p38 MFI at 2 nM sST2 (500 pM human IL-33, primary basophils) [2]: 40 MFI
IC50 (HEK-BLUE SEAP reporter, IL-33 blocking) [3]: 0.0122 nM
IC90 (HEK-BLUE SEAP reporter, IL-33 blocking) [3]: 0.0467 nM
IC50 (HEK-BLUE SEAP reporter, IL-33 blocking) [4]: 0.0018 nM
IC90 (HEK-BLUE SEAP reporter, IL-33 blocking) [4]: 0.0036 nM
Ph-p38 MFI at 0.4 nM sST2 (500 pM human IL-33, primary basophils) [5]: 113 MFI
IC50, IL-33-induced phospho-p38 in primary human basophils, 500 pM hIL-33 [6]: 7.9e-13 M
IC50 (read off the curve) [7]: 0.0008 nM
IC50; SEAP reporter, HEK-BLUE IL-33 cells, 15 pM human IL-33 N-His, 20 h [8]: 62.1 pM
IC90; SEAP reporter, HEK-BLUE IL-33 cells, 15 pM human IL-33 N-His, 20 h [8]: 257 pM
HEK-BLUE SEAP reporter IC50 [9]: 0.027 nM
IFN-γ secretion from primary NK cells, IC50 [9]: 0.15 nM
HEK-BLUE SEAP reporter IC50 [10]: 0.03 nM
Substance: sST2-LZ (sST2 (M1-F328) C-terminal leucine zipper (LZ)-Flag-His) (receptor)

Ph-p38 MFI at 2 nM Ab (500 pM human IL-33, primary basophils) [2]: 110 MFI
Ph-p38 MFI at 0.4 nM Ab (500 pM human IL-33, primary basophils) [5]: 152 MFI
IC50 as printed in the table (fit value of a flat curve: Control IgG4 stays at about 115-125 % IL-33 activity up to 1e4 pM, no inhibition); SEAP reporter, HEK-BLUE IL-33 cells, 15 pM human IL-33 N-His [8]: 7.63e-06 pM
IC90 as printed in the table (fit value of a flat curve: Control IgG4 stays at about 115-125 % IL-33 activity up to 1e4 pM, no inhibition); SEAP reporter, HEK-BLUE IL-33 cells, 15 pM human IL-33 N-His [8]: 1.08e-06 pM
Substance: control IgG4 antibody
